The data set concerns the target cardiac troponin I (cTnI) (UniProt P19429 2-210). Nature of the data set: SERS aptamer sandwich assay on waveguide; 1 ng/mL cTnI stock (25 uL mixed with 50 uL reporter NPs); sandwich with N2-AuNP; no cTnI-free control described; aptamer-AuNPs resuspended in PBS; cTnI incubated 30 min with reporter NPs, then 1 h on waveguide, rinsed with buffer; pH and temperature not stated. Particulars: protein: commercial.

The record followed here is publication PMC11643483, “Chip-Scale Aptamer Sandwich Assay Using Optical Waveguide-Assisted Surface-Enhanced Raman Spectroscopy”.

cardiac troponin I (cTnI), sequence (P19429 2-210): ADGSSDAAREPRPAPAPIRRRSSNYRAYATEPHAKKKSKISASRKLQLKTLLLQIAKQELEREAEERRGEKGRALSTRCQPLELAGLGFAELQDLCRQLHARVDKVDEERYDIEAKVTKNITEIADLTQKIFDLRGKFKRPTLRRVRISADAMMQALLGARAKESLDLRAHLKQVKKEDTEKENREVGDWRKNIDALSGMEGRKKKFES

As for CGTGCAGTACGCCAACCTTTCTCATGCGCTGCCCCTCTTA (ssDNA, 5'-amine-spacer 18-spacer 18) [primary (capture) aptamer], the binding result is recorded as “binds”.
